{
  "source": "paper PMC5148588",
  "target": "peptide containing the sequence LAETG",
  "data": [
    {"binder": "SrtE1^ΔN, extracellular domain of sortase E1 from Streptomyces coelicolor (residues T162-S352), Q9XA14 162-352 (enzyme) TNVRAHAQANQAASNLQDDWANGKRSPGSFEPGQGFALLHIPKLDVVVPIAEGISSKKVLDRGMVGHYAEDGLKTAMPDAKAGNFGLAGHRNTHGEPFRYINKLEPGDPIVVETQDKYFVYKMASILPVTSPSNVSVLDPVPKQSGFKGPGRYITLTTCTPEFTSKYRMIVWGKMVEERPRSKGKPDALVS", "values": [
      {"measurement": "hydrolysis of the peptide at the T-G bond, in vitro HPLC assay (area of the N-terminal product peak); preference against the LPETG peptide", "result": 2, "unit": "fold"}
    ]}
  ]
}
